Laboratory results from paper PMC11964265, “Eating the brain - A multidisciplinary study provides new insights into the mechanisms underlying the cytopathogenicity of Naegleria fowleri” (PLOS Pathogens, 2025).

Target: the molecule itself
Test: SEC; analytical size-exclusion chromatography, Superdex 200 Increase 10/300 GL, 20 mM Tris-HCl, 150 mM NaCl, pH 7.5; mass from calibration with Gel Filtration Standard (Bio-Rad)

B1: Naegleria fowleri lysozyme (recombinant) (natural protein)
chain: MSSYYTKEQFFRALHQVESKGQLNPPDGDKGRAIGPLQIWEVYWKDSGIQESYQSVRKFEIAKKCVNRFMKRYAENEWGPTMTIDQVEKCARIHNGGPRGHLKPETDDYWERFKEALENLDDEEVVVVEENDNNDDDQDDNEEESKDHRELLKIGMSGADVEEIQQQLADLGYDLGSYGADGKFGKATQQAVMKFQQDHDLAVDGIVGKETRKALNLEKGEDDQEQQEVADDQQEDDDEQQQQQNKDQPQEQDEEETTNEVKEEEQNDDEHEDPQEEEEQQQEDEQEDPQEEQQEDEDQQEDNDEENDQQQEDDDDQEQQQEEEEQEDPQEEEEQQNDDDDQQDDMEEQQDGDDDNDDDDA
notes: Cloned into pET42b with NdeI/XhoI sites in the primers; Pentamer by analytical SEC only; also called Nf lysozyme; source: E. coli BL21(DE3), purified (Ni-NTA agarose, native conditions)
  stoichiometry N: 5
